Results published in US20230303695A1 (SHANGHAI XBH BIOTECHNOLOGY, published 2023).
Positions count from the first letter of the chain named. Names may count otherwise.

B1: L1-02 (antibody, V domains shown)
VH: QVQLVESGGGVVQPGRSLRLSCAASGFTFSTYGMHWVRQAPGKGLEWVAVIWDDGSYKYYGDSVKGRFTISRDNSKNTLYLQMNSLRAEDTAVYYCARDGSGWGYAFDIWGQGTMVTVSS
VL: DIQLTQSPSSLSASVGDRVTITCQASQDISKPLNWYQHKPGKAPNPLVFDAANLETGVPPRFSATGSGTDFSLTITSLQPEDFATYYCQQYDSFPYTFGQGTRLDIK
B2: L1-05 (antibody, V domains shown)
VH: B1 VH
VL: B1 VL with S30T, P32G
B3: L1-13 (antibody, V domains shown)
VH: B1 VH
VL: B1 VL with K31E, P32Y, A52P
B4: L1VH-D53Y (antibody, V domains shown)
VH: B1 VH with D53Y
VL: B1 VL with K31E, P32Y
B5: L1-09 (antibody, V domains shown)
VH: B1 VH
VL: B1 VL with K31E, P32Y, D50A, A51R, A52D
B6: L1-14 (antibody, V domains shown)
VH: B1 VH
VL: B1 VL with K31E, P32Y, D50S, A51Q, A52P
B7: L1VH-D54T (antibody, V domains shown)
VH: B1 VH with D54T
VL: B1 VL with K31E, P32Y
B8: L1-08 (antibody, V domains shown)
VH: B1 VH
VL: B1 VL with S30G, K31A, P32Y
B9: L1-10 (antibody, V domains shown)
VH: B1 VH
VL: B1 VL with K31E, P32Y, D50T, A51S
B10: L1-12 (antibody, V domains shown)
VH: B1 VH
VL: B1 VL with K31E, P32Y, D50G, A52D
B11: L1-15 (antibody, V domains shown)
VH: B1 VH
VL: B1 VL with S30M, P32T
B12: L1-06 (antibody, V domains shown)
VH: B1 VH
VL: B1 VL with S30G, K31P, P32W
B13: L1-03 (antibody, V domains shown)
VH: B1 VH
VL: B1 VL with K31E, P32Y, D50R, A51S, A52P
B14: L1-11 (antibody, V domains shown)
VH: B1 VH
VL: B1 VL with S30E, K31W, P32A
B15: L1-04 (antibody, V domains shown)
VH: B1 VH
VL: B1 VL with K31E, P32Y, D50G, A51S, A52P
B16: L1-07 (antibody, V domains shown)
VH: B1 VH
VL: B1 VL with S30E, K31W, P32W
B17: L2-08 (antibody, V domains shown)
VH: EVQLVESGGGLEQPGGSLRLSCAASGFTFRDYAMTWVRQAPGKGLEWVSSISGSGGSTYYADSVKGRFTISRDNSKNTLYLQMNSLRAEDTAIYYCARGEYSSGWPSWFDPWGQGTLVTVSS
VL: DIQMTQSPSSLSASVGDRVTITCRASRTVGTFLNWYQQKPGKAPKALILGVSILEGGVPSRFSGSGSGTDFTLTISSLQPEDIATYYCQQSHDVPRTFGQGTKVEIK
B18: L2VH-R98K (antibody, V domains shown)
VH: B17 VH with A24G, S57N, R98K
VL: EIVLTQSPSSLSASVGDRVTISCRASRTVGTFLNWYQQRPGKPPQALILGVSILEGGVSSRFSGAGSGTEFSLTISSLQPEDIGTYYCQQSHDVPRTFGQGTKVDLR
B19: L2-03 (antibody, V domains shown)
VH: B17 VH with A24G
VL: B18 VL
B20: L2-02 (antibody, V domains shown)
VH: B17 VH with A24G, S57N
VL: B18 VL with G50H, V51T
B21: L2VL-S52V (antibody, V domains shown)
VH: B17 VH with A24G, S57N
VL: B18 VL with S52V
B22: L2VL-G56S (antibody, V domains shown)
VH: B17 VH with A24G, S57N
VL: B18 VL with G56S
B23: L2-07 (antibody, V domains shown)
VH: B17 VH
VL: B17 VL with A84G
B24: L2-05 (antibody, V domains shown)
VH: B17 VH with S50A
VL: B18 VL
B25: L2-09 (antibody, V domains shown)
VH: B17 VH
VL: B17 VL with G50H, V51T, A84G
B26: L2VL-I53S (antibody, V domains shown)
VH: B17 VH with A24G, S57N
VL: B18 VL with I53S
B27: L2VH-T35S (antibody, V domains shown)
VH: B17 VH with A24G, T35S, S57N
VL: B18 VL
B28: L2VH-D31S (antibody, V domains shown)
VH: B17 VH with A24G, D31S, S57N
VL: B18 VL
B29: L2VH-S50A (antibody, V domains shown)
VH: B17 VH with A24G, S50A, S57N
VL: B18 VL
B30: L2-06 (antibody, V domains shown)
VH: B17 VH
VL: B17 VL with P80L, I83F
B31: L2VH-R30S (antibody, V domains shown)
VH: B17 VH with A24G, R30S, S57N
VL: B18 VL
B32: L2-04 (antibody, V domains shown)
VH: B17 VH
VL: B18 VL
B33: L2VL-D93S (antibody, V domains shown)
VH: B17 VH with A24G, S57N
VL: B18 VL with D93S

Each binder was assayed against T1, recombinant human IGSF8 extracellular domain tagged by a human Fc region (IGSF8-hFc) (human, UniProt Q969P0 28-579, biotin label in Examples 17, 18 and 28 (site not given)) (assay: SPR, Ab captured).
T1 construct: also called IGSF8-Fc fusion protein; IGSF8-hFc-biotin; not shown: human Fc region
T1 sequence: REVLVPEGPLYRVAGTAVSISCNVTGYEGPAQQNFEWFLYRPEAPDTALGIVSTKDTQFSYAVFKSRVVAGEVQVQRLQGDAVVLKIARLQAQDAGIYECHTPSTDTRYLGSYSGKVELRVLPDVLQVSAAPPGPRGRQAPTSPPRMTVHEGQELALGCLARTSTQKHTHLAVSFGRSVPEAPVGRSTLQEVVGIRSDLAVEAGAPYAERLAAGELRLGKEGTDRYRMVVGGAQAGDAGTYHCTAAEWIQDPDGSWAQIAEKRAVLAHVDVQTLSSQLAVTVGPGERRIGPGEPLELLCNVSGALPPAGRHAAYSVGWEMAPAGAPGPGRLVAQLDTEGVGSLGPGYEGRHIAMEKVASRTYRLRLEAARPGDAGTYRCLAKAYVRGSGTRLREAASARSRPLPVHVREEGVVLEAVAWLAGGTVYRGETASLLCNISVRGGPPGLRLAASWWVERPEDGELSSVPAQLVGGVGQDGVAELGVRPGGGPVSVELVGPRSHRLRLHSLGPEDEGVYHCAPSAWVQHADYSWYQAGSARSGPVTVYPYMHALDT
Experimental: The binding affinities of the L1 and L2 antibodies to IGSF8 recombinant protein were determined by surface plasmon resonance (SPR). Briefly, anti-human Fab antibody was imobilized on acarboxyl-derivatized SPR chip surface, and the antibodies were captured on the resulting surface at 5 μg/ml for 30 seconds.

B1 and B2 are within 1.5-fold of each other in Kd: 4.22 nM for the first, 6.17 nM for the second.

Compared with B3, B4 is 75-fold higher in Kd: 4.88 nM for the first, 365 nM for the second. The first binds more tightly here.

B5 and B6 are within 1.5-fold of each other in Kd: 5.47 nM for the first, 6.41 nM for the second.

First: B7
Second: B8
The Kd of the first is 99-fold higher: 571 nM for the first, 5.78 nM for the second. The second binds more tightly here.

First: B9
Second: B10
The Kd of the first is 2.1-fold higher: 6.52 nM for the first, 3.08 nM for the second.

Compared with B11, B12 is 1.9-fold lower in Kd: 4.28 nM for the first, 2.3 nM for the second.

B13 and B14 are within 1.5-fold of each other in Kd: 5.88 nM for the first, 7.08 nM for the second.

Going from B15 to B16, the Kd falls from 7.33 nM to 1.34 nM (5.5-fold).

First: B17
Second: B18
The Kd of the first is 56-fold lower: 0.869 nM for the first, 48.7 nM for the second.

B19 and B20 are within 1.5-fold of each other in Kd: 3.27 nM for the first, 4.85 nM for the second.

First: B21
Second: B22
The Kd of the first is 2.2-fold higher: 64.5 nM for the first, 29.1 nM for the second.

Going from B23 to B24, the Kd rises from 1.16 nM to 2.63 nM (2.3-fold). The first binds more tightly here.

Compared with B25, B26 is 2700-fold higher in Kd: 0.475 nM for the first, 1280 nM for the second.

Compared with B27, B28 is 20-fold higher in Kd: 22.8 nM for the first, 465 nM for the second. The first binds more tightly here.

First: B29
Second: B30
The Kd of the first is 4.3-fold higher: 23.7 nM for the first, 5.45 nM for the second.

Going from B31 to B32, the Kd falls from 146 nM to 2.98 nM (49-fold). The second binds more tightly here.

B33 gave a Kd of 68 nM.

B1 and B2 are within 1.5-fold of each other in koff: 0.00127 s⁻¹ for the first, 0.00148 s⁻¹ for the second.

Compared with B3, B4 is 7.8-fold higher in koff: 0.00216 s⁻¹ for the first, 0.0168 s⁻¹ for the second.

B5 and B6 are within 1.5-fold of each other in koff: 0.00223 s⁻¹ for the first, 0.00244 s⁻¹ for the second.

Going from B7 to B8, the koff rises from 0.00131 s⁻¹ to 0.00253 s⁻¹ (1.9-fold).

B9 and B10 are within 1.5-fold of each other in koff: 0.00196 s⁻¹ for the first, 0.00142 s⁻¹ for the second.

B11 and B12 are within 1.5-fold of each other in koff: 0.00155 s⁻¹ for the first, 0.00104 s⁻¹ for the second.

B13 and B14 are within 1.5-fold of each other in koff: 0.00172 s⁻¹ for the first, 0.0024 s⁻¹ for the second.

First: B15
Second: B16
The koff of the first is 4.9-fold higher: 0.0022 s⁻¹ for the first, 0.000445 s⁻¹ for the second.

Going from B17 to B18, the koff rises from 0.000112 s⁻¹ to 0.00248 s⁻¹ (22-fold).

Compared with B19, B20 is 3.5-fold lower in koff: 0.000465 s⁻¹ for the first, 0.000131 s⁻¹ for the second.

First: B21
Second: B22
The koff of the first is 3.9-fold lower: 0.000806 s⁻¹ for the first, 0.00311 s⁻¹ for the second.

B23 and B24 are within 1.5-fold of each other in koff: 0.000129 s⁻¹ for the first, 0.000112 s⁻¹ for the second.

First: B25
Second: B26
The koff of the first is 24-fold lower: 7.15e-05 s⁻¹ for the first, 0.00173 s⁻¹ for the second.

Going from B27 to B28, the koff rises from 0.00139 s⁻¹ to 0.00567 s⁻¹ (4.1-fold).

Compared with B29, B30 is 2-fold lower in koff: 0.000486 s⁻¹ for the first, 0.000249 s⁻¹ for the second.

Compared with B31, B32 is 12-fold lower in koff: 0.00165 s⁻¹ for the first, 0.000142 s⁻¹ for the second.

For B33, the koff was 0.00202 s⁻¹.

B1 and B2 are within 1.5-fold of each other in kon: 300000 M⁻¹ s⁻¹ for the first, 241000 M⁻¹ s⁻¹ for the second.

First: B3
Second: B4
The kon of the first is 9.6-fold higher: 443000 M⁻¹ s⁻¹ for the first, 46100 M⁻¹ s⁻¹ for the second.

B5 and B6 are within 1.5-fold of each other in kon: 408000 M⁻¹ s⁻¹ for the first, 381000 M⁻¹ s⁻¹ for the second.

Going from B7 to B8, the kon rises from 2290 M⁻¹ s⁻¹ to 437000 M⁻¹ s⁻¹ (190-fold).

Compared with B9, B10 is 1.5-fold higher in kon: 301000 M⁻¹ s⁻¹ for the first, 461000 M⁻¹ s⁻¹ for the second.

B11 and B12 are within 1.5-fold of each other in kon: 362000 M⁻¹ s⁻¹ for the first, 453000 M⁻¹ s⁻¹ for the second.

B13 and B14 are within 1.5-fold of each other in kon: 293000 M⁻¹ s⁻¹ for the first, 339000 M⁻¹ s⁻¹ for the second.

B15 and B16 are within 1.5-fold of each other in kon: 300000 M⁻¹ s⁻¹ for the first, 332000 M⁻¹ s⁻¹ for the second.

Compared with B17, B18 is 2.5-fold lower in kon: 129000 M⁻¹ s⁻¹ for the first, 51000 M⁻¹ s⁻¹ for the second.

Going from B19 to B20, the kon falls from 142000 M⁻¹ s⁻¹ to 27100 M⁻¹ s⁻¹ (5.2-fold).

First: B21
Second: B22
The kon of the first is 8.6-fold lower: 12500 M⁻¹ s⁻¹ for the first, 107000 M⁻¹ s⁻¹ for the second.

Going from B23 to B24, the kon falls from 111000 M⁻¹ s⁻¹ to 42700 M⁻¹ s⁻¹ (2.6-fold).

First: B25
Second: B26
The kon of the first is 110-fold higher: 151000 M⁻¹ s⁻¹ for the first, 1350 M⁻¹ s⁻¹ for the second.

Going from B27 to B28, the kon falls from 61100 M⁻¹ s⁻¹ to 12200 M⁻¹ s⁻¹ (5-fold).

Compared with B29, B30 is 2.2-fold higher in kon: 20500 M⁻¹ s⁻¹ for the first, 45700 M⁻¹ s⁻¹ for the second.

Going from B31 to B32, the kon rises from 11400 M⁻¹ s⁻¹ to 47600 M⁻¹ s⁻¹ (4.2-fold).

For B33, the kon was 29700 M⁻¹ s⁻¹.
